Measured values from article PMC9198364 (Molecular Therapy. Methods & Clinical Development, 2022).

Columns and labels:
[1] = target: AAVPHP.eB capsid (recombinant AAVPHP.eB particles) (adeno-associated virus 9 (parental serotype)) (UniProt Q6JC40); assay: SPR
[2] = target: adeno-associated virus (AAV) 9 capsid (recombinant AAV9 particles) (adeno-associated virus 9, UniProt Q6JC40 1-736); assay: SPR

B1: soluble AAV receptor (AAVR) extracellular fragment containing PKD1-5 (domain or fragment)
chain: RKNRPPIAIVSPQFQEISLPTTSTVIDGSQSTDDDKIVQYHWEELKGPLREEKISEDTAILKLSKLVPGNYTFSLTVVDSDGATNSTTANLTVNK
Question: What does the source list for B1?
Answer: Kd [1]: 274 nM; Kd [2]: 138 nM
